Reference: patent US8367390B2, “Galactanase variants” (Novozymes A/S, priority 2002, dated 2013)

Key:
Assay type in all cases: biochemical
[1] = Activity on galactobiose (Gal2); details: in 24 hours; buffer, pH and temperature per enzyme
Experimental: (§1) The activity on the galacto-oligosaccharide substrates prepared as described above and on the commercially available galactobiose (Gal2, Megazyme) was studied for the four purified galactanases HIGAL, MTGAL, AAGAL and BLGAL. The buffers and temperatures used were: 25 mM sodium acetate, 0.5 mM CaCl2, 0.005% Triton X-100, pH 6.5 at 37° C. for HIGAL and MTGAL, 50 mM sodium acetate, 1 mM CaCl2, pH 4 at 30° C. for AAGAL and 50 mM Mes, 1 mM CaCl2, pH 6.5 at 30° C. for BLGAL. Enzyme concentrations used were 0.8 μg/ml for HIGAL, 0.2 microgram/ml for MTGAL, and 10 micrograms/ml for AAGAL and BLGAL. With HIGAL and MTGAL substrate concentrations were all 0.25 mg/ml, whereas 0.34 mg/ml Gal2, 0.050 mg/ml Gal3 and 0.067 mg/ml Gal4 were used for AAGAL and BLGAL. Enzyme activity in samples withdrawn after various incubation times was inactivated by heating to 95° C. for 10 min. Compositions of reaction products were analysed using HPAE-PAD (Dionex) applying a PA-100 column and a linear gradient of sodium acetate (0-0.18 M) in 0.15 M NaOH. Response factors of the individual carbohydrates were estimated from reference runs with MeGal3, MeGal4, Gal, Gal2, Gal3 and Gal4. Selected results are shown in Tables 2-8 below (the figures indicating weight percentage of glactooligosaccharides).

[2] = Activity on galactotriose (Gal3); details: up to 24 hours; buffer, pH and temperature per enzyme
Experimental: as §1

[3] = Degradation of MeGal4, products by HPAE-PAD; details: for Gal2 in reaction products / Gal3 in reaction products / Gal4 in reaction products / Gal in reaction products / MeGal2 in reaction products / MeGal3 in reaction products / MeGal4 in reaction products / MeGal in reaction products: MeGal4 0.25 mg/ml, pH 6.5, 37° C.; for Products from MeGal4: in words, buffer, pH and temperature per enzyme
Experimental: as §1

B1: MTGAL: GH Family 53 galactanase from Myceliophthora thermophila, SEQ ID NO: 1 (wild type parent) (protein, listed as Myceliophthora thermophila)
chain: ALTYRGVDWSSVVVEERAGVSYKNTNGNAQPLENILAANGVNTVRQRVWVNPADGNYNLDYNIAIAKRAKAAGLGVYIDFHYSDTWADPAHQTMPAGWPSDIDNLSWKLYNYTLDAANKLQNAGIQPTIVSIGNEIRAGLLWPTGRTENWANIARLLHSAAWGIKDSSLSPKPKIMIHLDNGWDWGTQNWWYTNVLKQGTLELSDFDMMGVSFYPFYSSSATLSALKSSLDNMAKTWNKEIAVVETNWPISCPNPRYSFPSDVKNIPFSPEGQTTFITNVANIVSSVSRGVGLFYWEPAWIHNANLGSSCADNTMFSQSGQALSSLSVFQRI
modifications: mat_peptide (1)..()
Activity on Gal2 [1]: Neither of the enzymes HIGAL, MTGAL, AAGAL or BLGAL had any detectable activity | Activity on Gal3, products [2]: degraded Gal3 to Gal2 and Gal | Gal2 in reaction products ([3]; incubation time 0.0 hours): 0.0 weight percentage | Gal3 in reaction products ([3]; incubation time 0.0 hours): 0.0 weight percentage | Gal4 in reaction products ([3]; incubation time 0.0 hours): 0.0 weight percentage | Gal in reaction products ([3]; incubation time 0.0 hours): 0.0 weight percentage | MeGal2 in reaction products ([3]; incubation time 0.0 hours): 4.7 weight percentage | MeGal3 in reaction products ([3]; incubation time 0.0 hours): 14.8 weight percentage | MeGal4 in reaction products ([3]; incubation time 0.0 hours): 79.0 weight percentage | MeGal in reaction products ([3]; incubation time 0.0 hours): 1.6 weight percentage | Gal2 in reaction products ([3]; incubation time 0.5 hours): 3.3 weight percentage | Gal3 in reaction products ([3]; incubation time 0.5 hours): 13.7 weight percentage | Gal4 in reaction products ([3]; incubation time 0.5 hours): 2.5 weight percentage | Gal in reaction products ([3]; incubation time 0.5 hours): 0.9 weight percentage | MeGal2 in reaction products ([3]; incubation time 0.5 hours): 9.6 weight percentage | MeGal3 in reaction products ([3]; incubation time 0.5 hours): 17.1 weight percentage | MeGal4 in reaction products ([3]; incubation time 0.5 hours): 43.9 weight percentage | MeGal in reaction products ([3]; incubation time 0.5 hours): 8.9 weight percentage | Gal2 in reaction products ([3]; incubation time 2.0 hours): 10.9 weight percentage | Gal3 in reaction products ([3]; incubation time 2.0 hours): 23.9 weight percentage | Gal4 in reaction products ([3]; incubation time 2.0 hours): 3.7 weight percentage | Gal in reaction products ([3]; incubation time 2.0 hours): 4.8 weight percentage | MeGal2 in reaction products ([3]; incubation time 2.0 hours): 13.6 weight percentage | MeGal3 in reaction products ([3]; incubation time 2.0 hours): 16.0 weight percentage | MeGal4 in reaction products ([3]; incubation time 2.0 hours): 10.9 weight percentage | MeGal in reaction products ([3]; incubation time 2.0 hours): 16.2 weight percentage | Gal2 in reaction products ([3]; incubation time 5.0 hours): 20.1 weight percentage | Gal3 in reaction products ([3]; incubation time 5.0 hours): 17.9 weight percentage | Gal4 in reaction products ([3]; incubation time 5.0 hours): 2.9 weight percentage | Gal in reaction products ([3]; incubation time 5.0 hours): 12.4 weight percentage | MeGal2 in reaction products ([3]; incubation time 5.0 hours): 13.9 weight percentage | MeGal3 in reaction products ([3]; incubation time 5.0 hours): 9.9 weight percentage | MeGal4 in reaction products ([3]; incubation time 5.0 hours): 3.5 weight percentage | MeGal in reaction products ([3]; incubation time 5.0 hours): 19.3 weight percentage | Gal2 in reaction products ([3]; incubation time 24.0 hours): 32.7 weight percentage | Gal3 in reaction products ([3]; incubation time 24.0 hours): 3.4 weight percentage | Gal4 in reaction products ([3]; incubation time 24.0 hours): 1.1 weight percentage | Gal in reaction products ([3]; incubation time 24.0 hours): 24.2 weight percentage | MeGal2 in reaction products ([3]; incubation time 24.0 hours): 13.3 weight percentage | MeGal3 in reaction products ([3]; incubation time 24.0 hours): 2.3 weight percentage | MeGal4 in reaction products ([3]; incubation time 24.0 hours): 2.9 weight percentage | MeGal in reaction products ([3]; incubation time 24.0 hours): 20.1 weight percentage | Products from MeGal4 [3]: initial release mainly of MeGal, MeGal2 and Gal3 and some Gal2 but little Gal

B2: HIGAL: GH Family 53 galactanase from Humicola insolens, SEQ ID NO: 2 (wild type parent) (protein, listed as Humicola insolens)
chain: ALQYKGVDWSSVMVEERAGVRYKNVNGQEKPLEYILAENGVNMVRQRVWVNPWDGNYNLDYNIQLARRAKAAGLGLYINFHYSDTWADPAHQTTPAGWPSDINNLAWKLYNYTLDSMNRFADAGIQVDIVSIGNEITQGLLWPLGKTNNWYNIARLLHSAAWGVKDSRLNPKPKIMVHLDNGWNWDTQNWWYTNVLSQGPFEMSDFDMMGVSFYPFYSASATLDSLRRSLNNMVSRWGKEVAVVETNWPTSCPYPRYQFPADVRNVPFSAAGQTQYIQSVANVVSSVSKGVGLFYWEPAWIHNANLGSSCADNTMFTPSGQALSSLSVFHRI
modifications: mat_peptide (1)..()
Activity on Gal2 [1]: Neither of the enzymes HIGAL, MTGAL, AAGAL or BLGAL had any detectable activity | Activity on Gal3, products [2]: degraded Gal3 to Gal2 and Gal | Gal2 in reaction products ([3]; incubation time 0.0 hours): 0.0 weight percentage | Gal3 in reaction products ([3]; incubation time 0.0 hours): 0.0 weight percentage | Gal4 in reaction products ([3]; incubation time 0.0 hours): 0.0 weight percentage | Gal in reaction products ([3]; incubation time 0.0 hours): 0.0 weight percentage | MeGal2 in reaction products ([3]; incubation time 0.0 hours): 4.7 weight percentage | MeGal3 in reaction products ([3]; incubation time 0.0 hours): 14.8 weight percentage | MeGal4 in reaction products ([3]; incubation time 0.0 hours): 79.0 weight percentage | MeGal in reaction products ([3]; incubation time 0.0 hours): 1.6 weight percentage | Gal2 in reaction products ([3]; incubation time 0.5 hours): 6.3 weight percentage | Gal3 in reaction products ([3]; incubation time 0.5 hours): 20.6 weight percentage | Gal4 in reaction products ([3]; incubation time 0.5 hours): 3.3 weight percentage | Gal in reaction products ([3]; incubation time 0.5 hours): 2.3 weight percentage | MeGal2 in reaction products ([3]; incubation time 0.5 hours): 12.6 weight percentage | MeGal3 in reaction products ([3]; incubation time 0.5 hours): 17.2 weight percentage | MeGal4 in reaction products ([3]; incubation time 0.5 hours): 25.5 weight percentage | MeGal in reaction products ([3]; incubation time 0.5 hours): 12.1 weight percentage | Gal2 in reaction products ([3]; incubation time 2.0 hours): 5.0 weight percentage | Gal3 in reaction products ([3]; incubation time 2.0 hours): 16.0 weight percentage | Gal4 in reaction products ([3]; incubation time 2.0 hours): 3.2 weight percentage | Gal in reaction products ([3]; incubation time 2.0 hours): 1.6 weight percentage | MeGal2 in reaction products ([3]; incubation time 2.0 hours): 13.2 weight percentage | MeGal3 in reaction products ([3]; incubation time 2.0 hours): 18.4 weight percentage | MeGal4 in reaction products ([3]; incubation time 2.0 hours): 32.1 weight percentage | MeGal in reaction products ([3]; incubation time 2.0 hours): 10.5 weight percentage | Gal2 in reaction products ([3]; incubation time 5.0 hours): 13.8 weight percentage | Gal3 in reaction products ([3]; incubation time 5.0 hours): 19.7 weight percentage | Gal4 in reaction products ([3]; incubation time 5.0 hours): 3.2 weight percentage | Gal in reaction products ([3]; incubation time 5.0 hours): 7.4 weight percentage | MeGal2 in reaction products ([3]; incubation time 5.0 hours): 16.1 weight percentage | MeGal3 in reaction products ([3]; incubation time 5.0 hours): 15.5 weight percentage | MeGal4 in reaction products ([3]; incubation time 5.0 hours): 7.6 weight percentage | MeGal in reaction products ([3]; incubation time 5.0 hours): 16.6 weight percentage | Gal2 in reaction products ([3]; incubation time 24.0 hours): 25.3 weight percentage | Gal3 in reaction products ([3]; incubation time 24.0 hours): 9.1 weight percentage | Gal4 in reaction products ([3]; incubation time 24.0 hours): 1.7 weight percentage | Gal in reaction products ([3]; incubation time 24.0 hours): 26.4 weight percentage | MeGal2 in reaction products ([3]; incubation time 24.0 hours): 13.4 weight percentage | MeGal3 in reaction products ([3]; incubation time 24.0 hours): 5.0 weight percentage | MeGal4 in reaction products ([3]; incubation time 24.0 hours): 0.0 weight percentage | MeGal in reaction products ([3]; incubation time 24.0 hours): 19.1 weight percentage | Products from MeGal4 [3]: initial release mainly of MeGal, MeGal2 and Gal3 and some Gal2 but little Gal
